Measured values as given in the supplement of paper PMC11136658.

Tested on: peptide library, one residue held at a place counted from the Y acceptor
Assay: relative phosphorylation of the sub-library (ratio to the mean residue at this position); higher = residue favoured
How it was run: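 Every value reflects phosphorylation relative to the mean randomized residue. The sum of the 18 randomized residues, or 16 in the Ser/Thr-free library, served to normalize intensities at each position, which were then multiplied by that number. Intensities came from phosphorimaging with ImageQuant of biotinylated Tyr-centred peptides captured on streptavidin membranes after 90 min with purified recombinant kinases and 50 μM ATP plus γ-32P-ATP.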

Sequence of MUSK, construct: aa529-end, human (O15146 529-869, looked up): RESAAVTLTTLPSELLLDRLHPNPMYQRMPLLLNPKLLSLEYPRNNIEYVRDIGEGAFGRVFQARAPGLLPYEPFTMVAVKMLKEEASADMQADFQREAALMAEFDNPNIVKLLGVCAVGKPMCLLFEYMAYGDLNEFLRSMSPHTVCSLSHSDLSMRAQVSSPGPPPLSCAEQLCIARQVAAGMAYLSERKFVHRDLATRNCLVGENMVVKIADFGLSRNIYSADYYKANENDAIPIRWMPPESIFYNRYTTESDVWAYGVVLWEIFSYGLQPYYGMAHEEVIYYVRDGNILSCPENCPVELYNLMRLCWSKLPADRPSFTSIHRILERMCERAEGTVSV

MST1R (from UniProt Q04912)
relative phosphorylation
Conditions	at +1	at +2	at +3	at +4	at +5	at -1	at -2	at -3	at -4	at -5
A fixed	0.871	0.845	0.68	0.963	1.06	0.744	0.976	0.932	1.03	0.978
D fixed	0.356	0.803	0.406	0.696	0.865	1.38	1.03	1.2	1.02	0.894
E fixed	0.55	0.767	0.281	0.622	0.874	1.01	0.864	1.06	0.966	0.851
F fixed	1.62	0.938	1.28	1.1	0.582	1.06	0.794	0.996	1.1	1.1
G fixed	0.645	0.821	0.766	1.17	1.25	0.665	1.38	1.21	1.25	1.13
H fixed	1.3	0.906	0.968	1.11	1.03	1.12	0.938	0.991	0.847	0.989
I fixed	1.51	1	2.14	0.923	0.473	1.36	0.957	0.801	0.85	0.932
K fixed	0.618	1.14	0.612	0.921	1.66	0.806	1.04	1	1.08	1.13
L fixed	1.32	1.15	1.67	0.924	0.626	1.29	0.903	0.937	1.04	1.07
M fixed	1.15	0.99	1.32	1.1	0.715	0.904	0.685	0.845	0.941	0.974
N fixed	0.594	1.13	0.492	0.82	1.23	1.25	0.978	1.01	0.796	0.864
P fixed	0.672	0.967	1.17	1.03	1.57	0.768	1.31	1.09	1.16	1.07
Q fixed	1.04	0.996	0.577	1.04	1.16	0.977	1.07	1.01	0.996	0.946
R fixed	0.922	1.3	0.862	1.34	1.75	0.757	1.28	1.18	1.09	1.18
S fixed	0.901	0.95	0.712	0.897	1.25	0.777	1.23	1.2	0.87	0.974
T fixed	0.876	0.792	0.623	0.85	1.17	0.899	0.973	0.91	0.821	0.884
V fixed	1.46	1.04	1.36	0.901	0.579	1.15	1.02	0.728	0.89	0.939
W fixed	1.36	1.2	1.41	1.34	0.575	0.762	0.77	0.997	0.953	0.953
pThr fixed	0.564	0.981	0.277	0.414	0.638	1.16	1.02	0.95	0.758	0.795
pTyr fixed	1.73	1.79	0.651	1.11	0.728	2.14	1.1	1.13	1.04	0.922

MUSK, construct: aa529-end, human (from UniProt O15146)
relative phosphorylation
Conditions	at +1	at +2	at +3	at +4	at +5	at -1	at -2	at -3	at -4	at -5
A fixed	1.21	0.711	0.689	0.799	0.969	0.559	0.817	0.963	1.25	1.09
D fixed	0.341	0.179	0.233	0.665	0.832	0.932	0.856	1.09	0.763	0.981
E fixed	0.619	0.251	0.156	0.481	0.784	2.14	1.44	1	0.919	0.766
F fixed	1.9	1.59	1.49	1.06	1.01	1.33	0.962	1.16	1.38	1.33
G fixed	0.835	0.386	0.886	0.94	1.08	0.401	1.06	0.981	1.14	1.06
H fixed	1.68	0.852	0.868	1.2	1.07	1.51	1.14	1.04	0.977	0.891
I fixed	1.31	1.54	1.59	0.808	0.781	1.5	1.02	0.87	1.02	0.946
K fixed	0.317	1.58	0.99	1.53	1.15	0.248	0.779	0.855	0.822	0.916
L fixed	0.926	1.12	1.09	0.907	1.02	1.62	1.09	1.04	1.13	1.17
M fixed	1.58	0.918	1.24	1.1	0.964	0.939	0.914	1.15	0.996	1.13
N fixed	0.41	0.774	0.62	0.848	0.935	2.14	1.35	1.09	0.877	1.04
P fixed	0.151	0.654	1.2	0.974	1.04	0.476	0.672	0.865	1.09	1.01
Q fixed	0.768	0.847	0.48	1.11	0.786	0.782	1.04	0.881	1.06	1.11
R fixed	0.541	2.19	2.06	1.57	1.66	0.255	0.976	0.866	0.972	0.892
S fixed	0.58	0.819	0.591	1.04	0.858	0.437	1.05	1.09	0.721	0.804
T fixed	0.563	0.862	0.843	0.771	0.987	0.465	1.03	0.936	0.627	0.663
V fixed	1.55	1.69	1.48	0.86	0.836	1.19	0.921	0.874	0.881	0.962
W fixed	2.72	1.05	1.49	1.36	1.24	1.06	0.892	1.25	1.39	1.25
pThr fixed	1.15	0.475	0.215	0.619	0.435	1.32	0.741	0.718	0.587	0.773
pTyr fixed	11.8	1.11	0.592	0.73	0.832	5.58	1.07	1.32	0.963	1.02
